Substrate in the data set: O=[N+]([O-])c1ccc(O[C@@H]2O[C@H](CO)[C@@H](O)[C@H](O)[C@H]2O)cc1
Nature of the data set: purified protein. The class given is biochemical, uncultured bacterium. As to conditions: pH 7.0, 37 °C, sodium phosphate buffer, 0.1-10 mM substrate.

The term Km denotes the substrate concentration at which the rate is half of its maximum. Usually kcat stands for the maximal rate divided by the concentration of active sites.

B1: Bg10 (uncultured bacterium) (protein)
chain: MTAVRSESAELSQSPASYRFPPGFVWGAATAAYQIEGAAAEDGRTPSIWDTFSHTPGRVLNGDTGDIAADHYHRFRDDVALMSDLNLGAYRFSVSWSRVQPTGRGPAVQRGLDFYRQLVDELLEKGITPVATLYHWDLPQDLEDVGGWTVRDTPERFAEYTEIVAAALGDRVPYWTTLNEPWCSAYLGYGSGVHAPGRTDPEAALKAVHHLNLAHGRGIGVLRSLLPSTARTSITLNLHQIRPLSTSPADLDAARRIDAVGNRVWLGPILDGAYPQDVLADTGHLVDWDRLVRDGDLEEISRPIDLLGINYYTPTLVSDGRAHADGPAMPRNDGHGASAHSPWPGSEHVAFHLAPGETTAMRWAVDASGLYDLLMRIHREHPGLPMMVTENGAAYDDYISPEGAINDPDRIAYLRGHLSAVHRALADGADVRGYFLWSLLDNFEWAYGYSKRFGAVYVDFGTQRRIPKQSAHWYAAVARDNVLPDGPEEDGTS
notes: ORF10 in pET28a (EcoRI/HindIII), E. coli BL21(DE3), Ni-NTA and size exclusion
B1: the Km came out at 490 ± 120 µM and the kcat is 2.918 ± 0.115 s⁻¹.

The record behind these values is PMC5176175, “Bg10: A Novel Metagenomics Alcohol-Tolerant and Glucose-Stimulated GH1 ß-Glucosidase Suitable for Lactose-Free Milk Preparation” (PLoS ONE, 2016).
